Measurements taken from paper PMC8191316, “Structural basis for CD97 recognition of the decay-accelerating factor CD55 suggests mechanosensitive activation of adhesion GPCRs” (The Journal of Biological Chemistry, 2021).

B1: CD97 EGF_(1,2,5) fragment, WT, without His-tag (SPR construct with TEV site) [human] / CD55 SCR1–4 domains (35–285), His-tagged [human] (parent)
chain 1: QDSRGCARWCPQNSSCVNATACRCNPGFSSFSEIITTPTETCDDINECATPSKVSCGKFSDCWNTEGSYDCVCSPGYEPVSGAKTFKNESENTCQDVDECSSGQHQCDSSTVCFNTVGSYSCRCRPGWKPRHGIPNNQKDTVCED
chain 2: DCGLPPDVPNAQPALEGRTSFPEDTVITYKCEESFVKIPGEKDSVICLKGSQWSDIEEFCNRSCEVPTRLNSASLKQPYITQNYFPVGTVVEYECRPGYRREPSLSPKLTCLQNLKWSTAVEFCKKKSCPNPGEIRNGQIDVPGGILFGATISFSCNTGYKLFGSTSSFCLISGSSVQWSDPLPECREIYCPAPPQIDNGIIQGERDHYGYRQSVTYACNKGFTMIGEHSIYCTVNNDEGEWSGPPPECRG

Variants of: B1
Assay: SPR
Settings: with CD55 SCR1–4 domains (35–285), His-tagged CD55 immobilized on NTA chip, CD97(E86A) titrated at 0.2, 0.5, 1, 2, 5, 10, 20, 30 µM

Variant	koff
chain 1 E66A	1.41 10^-3 s-1

Same assay, conditions: with CD55 SCR1–4 domains (35–285), His-tagged CD55 immobilized on NTA chip, CD97(E86A) titrated at 0.2, 0.5, 1, 2, 5, 10, 20, 30 µM, parent: 546

Variant	kon
chain 1 E66A	80.1 M⁻¹ s⁻¹

Same assay, conditions: with CD55 SCR1–4 domains (35–285), His-tagged CD55 immobilized on NTA chip, CD97(V137A) titrated at 0.2, 0.5, 1, 2, 5, 10, 20 µM

Variant	koff
chain 1 V117A	1.63 10^-3 s-1

Same assay, conditions: with CD55 SCR1–4 domains (35–285), His-tagged CD55 immobilized on NTA chip, CD97(V137A) titrated at 0.2, 0.5, 1, 2, 5, 10, 20 µM, parent: 546

Variant	kon
chain 1 V117A	64 M⁻¹ s⁻¹

Same assay, conditions: with CD55 SCR1–4 domains (35–285), His-tagged CD55 immobilized on NTA chip, CD97(D63L) titrated at 0.2, 0.5, 1, 5, 10, 20 µM

Variant	koff
chain 1 D43L	0.968 10^-3 s-1

Same assay, conditions: with CD55 SCR1–4 domains (35–285), His-tagged CD55 immobilized on NTA chip, CD97(D63L) titrated at 0.2, 0.5, 1, 5, 10, 20 µM, parent: 546

Variant	kon
chain 1 D43L	11.2 M⁻¹ s⁻¹

Same assay, conditions: with CD55 SCR1–4 domains (35–285), His-tagged CD55 immobilized on NTA chip, CD97(D81A) titrated at 0.2, 0.5, 1, 2, 5, 10, 20 µM

Variant	koff
chain 1 D61A	1.22 10^-3 s-1

Same assay, conditions: with CD55 SCR1–4 domains (35–285), His-tagged CD55 immobilized on NTA chip, CD97(D81A) titrated at 0.2, 0.5, 1, 2, 5, 10, 20 µM, parent: 546

Variant	kon
chain 1 D61A	20.2 M⁻¹ s⁻¹
